According to patent publication US20250189544A1 (CASI PHARMACEUTICALS, published 2025):
Blank lines part the entries; values can stand above or below the molecule they belong to.

What was measured:
Human CD38 [1] = biological target: T1, Human CD38 (human, UniProt P28907 1-300); experiment: flow cytometry on red blood cells of Donor 1; negative control
T1 sequence: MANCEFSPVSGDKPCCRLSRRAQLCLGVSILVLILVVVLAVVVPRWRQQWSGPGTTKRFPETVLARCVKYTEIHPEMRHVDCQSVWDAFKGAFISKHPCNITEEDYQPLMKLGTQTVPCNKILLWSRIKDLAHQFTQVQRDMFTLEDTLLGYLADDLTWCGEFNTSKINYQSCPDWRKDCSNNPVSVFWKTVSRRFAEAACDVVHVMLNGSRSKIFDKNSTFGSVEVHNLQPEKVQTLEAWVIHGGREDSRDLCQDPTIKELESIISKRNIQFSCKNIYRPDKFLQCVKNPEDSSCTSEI

Human CD38 [2] = biological target: T1, Human CD38; experiment: flow cytometry on red blood cells of Donor 3; negative control
Human CD38 [3] = biological target: T1, Human CD38; experiment: flow cytometry on red blood cells of Donor 2; negative control
Human CD38 [4] = biological target: T1, Human CD38; experiment: flow cytometry on Ramos cells expressing CD38; negative control, ambiguous regression curve
Human CD38 [5] = biological target: T1, Human CD38; experiment: flow cytometry on Daudi cells expressing CD38
Method: (§1) Cell lines/primary cell type used. […] Daudi, Raji, Ramos and cells were cultured in log-phase in RPMI-1640 Medium (ATCC 30-2001) supplemented with 10% FCS, 2 mM L-glutamine, 100 IU/ml penicillin, 100 μg/ml streptomycin and 1 mM sodium pyruvate (all from ThermoFisher) with viability of >85% as determined by automated cell counter (Countess II FL Automated Cell Counter; ThermoFisher; catalog #AMQAF1000) prior to experiments.
(§2) Cell staining and flow cytometry. All experiments were done in triplicates using a 96-well plate format. 50,000 cells were plated in each well of a 96-well round bottom tissue culture treated plate. […] Following a wash step with FACS cell staining buffer, cells were incubated with secondary antibody (rabbit anti-human Fcγ F(ab′)2 labeled with Alexa Fluor647; Jackson ImmunoResearch Catalog #309-606-008) at 5 μg/ml for 30 minutes on ice in the dark. Cells were washed once more with FACS cell staining buffer and analyzed by flow cytometry using a BD Biosciences FACSCalibur flow cytometer (San Jose, CA). FSC vs SSC gating was used to identify cells of interest. A total of 3,000 live single cells were recorded for each sample and corresponding fluorescent signal intensity histograms were analyzed. The mean fluorescence intensity (MFI) was calculated using FlowJo analysis software (Ashland, Oregon) for each antibody concentration.

Human CD38 [6] = biological target: T1, Human CD38; experiment: flow cytometry on Raji cells expressing CD38
Method: as §1, §2

Human CD38 [7] = biological target: T1, Human CD38; experiment: flow cytometry on Ramos cells expressing CD38
Method: as §1, §2

Human CD38 [8] = biological target: T1, Human CD38; experiment: flow cytometry on Raji cells expressing CD38; text value differs from Table 1 (273)
Method: as §1, §2

Max MFI (Human CD38 [1]): 2560 MFI
Max MFI (Human CD38 [2]): 1960 MFI
Max MFI (Human CD38 [3]): 2110 MFI
EC50 (Human CD38 [4]): 0.001 µg/mL
Molecule: Human IgG1 isotype control antibody

EC50 (Human CD38 [5]): 0.382 µg/mL
EC50 (Human CD38 [6]): 0.273 µg/mL
EC50 (Human CD38 [7]): 0.412 µg/mL
EC50 (Human CD38 [8]): 0.373 µg/mL
B1: CID103 (aCD38-b-348) (antibody, V domains shown)
VH: QLQLQESGPGLVKPSETLSLTCTVSGGSISSSDYYWGWIRQPPGKGLEWIGSIYYSGSTYYNPSLKSRVTISVDTSKNQFSLKLSSVTAADTAVYYCARGQYSSGWYAYPFDMWGQGTMVTVSS
VL: EIVLTQSPGTLSLSPGERATLSCRASQSVRSSYLAWYQQKPGQAPRLLIYGASSRATGIPDRFSGSGSGTDFTLTISRLEPEDFAVYYCQQDGNVYTFGGGTKVEIK
